Source: PMC5130146 (Nature structural & molecular biology, 2016)
Where two headings read alike, the source gives them in different places.

Assays:
Experiment in all cases: ITC
[1] = target: AP2 µ2 C-terminal subdomain (C-µ2), residues 160-435 of rat µ2 (rat) (UniProt P84092)
[2] = target: T1, AP2 µ2 C-terminal subdomain (C-µ2), residues 160-435 of rat µ2 (rat, UniProt P84092 160-435)
T1 sequence: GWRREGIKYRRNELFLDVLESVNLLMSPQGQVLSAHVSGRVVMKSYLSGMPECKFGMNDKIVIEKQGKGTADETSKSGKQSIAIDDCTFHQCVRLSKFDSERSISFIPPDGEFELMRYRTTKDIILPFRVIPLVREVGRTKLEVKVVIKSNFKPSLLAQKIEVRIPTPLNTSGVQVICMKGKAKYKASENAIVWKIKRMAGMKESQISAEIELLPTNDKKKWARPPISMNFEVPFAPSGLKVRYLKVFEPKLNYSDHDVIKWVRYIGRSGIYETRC

[3] = target: T1, AP2 µ2 C-terminal subdomain (C-µ2), …; remark: listed apart in the source

integrin α4 peptide (QYKSILQE)
Kd [1]: 72 µM

EGFR peptide (FYRLMS)
Kd [1]: 20 µM

SYTRFS [transferrin receptor peptide (SYTRFS)]
Kd [2]: ~15 µM

WKLGFFKRKYEKMTKNPDEIDETTELSS [α2 integrin peptide (WKLGFFKRKYEKMTKNPDEIDETTELSS)]
Kd [3]: ~50 µM

YKLGFFKRSLPYGTAMEKAQLKPPATSDA [α5-integrin peptide (YKLGFFKRSLPYGTAMEKAQLKPPATSDA)]
Kd [3]: > 300 µM

DYQRLN [TGN38 peptide (DYQRLN)]
Kd [2]: ~4 µM

KLLMIIHDRREFAKFEKEKMNAKWDTGENPIYKSAVTTVVNPKYEGK [β1-integrin peptide]
Kd [3]: > 300 µM
